We go through 21 molecules from patent US20080058263A1 (published 2008).

Assay in all cases: receptor-Fc IP
The target of experiment [1] is T1, VEGFR-1-Fc (UniProt P17948 27-338).
T1 construct: domain: first three Ig domains; expressed in Drosophila S2 cells, purified on Protein A sepharose; also called VEGFR-1-Fc fusion protein; not shown: Fc fragment from the Signal-pIgPlus vector
The method, then: (§1) The binding assay procedure was identical to the immunoprecipitation using pentahistidine antibody described in Example 2, apart from the composition of the immunoprecipitation (IP) mixes. The IP mixes used for the receptor binding analysis were as follows: For VEGFR-1 binding assays, the IP mix was phosphate buffered saline (PBS) containing 1.5% BSA, 0.06% Tween 20, 3 μg/ml heparin and 400 ng/ml VEGFR-1-Fc fusion protein (100 μl of this IP mix was added to 200 μl of sample supernatant); for VEGFR-2 binding assays, the IP mix was 82% conditioned cell supernatant from 293T cells transiently expressing VEGFR-2-Fc fusion protein in mixture with 18% of a PBS solution that contained 5% BSA, 0.2% Tween 20, and 10 μg/ml heparin (250 μl of IP mix was added to 200 μl of sample supernatant); and for VEGFR-3 binding assays, the IP mix was 82% conditioned cell supernatant from 293T cells transiently expressing VEGFR-3-Fc fusion protein, 18% of PBS containing 5% BSA, 0.2% Tween 20, and 10 μg/ml heparin (250 μl of IP mix was added to 200 μl of sample supernatant).

Experiment [2] concerns the target T2, VEGFR-3-Fc (UniProt P35916 25-328).
T2 construct: domain: first three Ig domains; conditioned supernatant of 293T cells; also called VEGFR-3-Fc fusion protein; not shown: Fc fragment of the pIg vector
T2 sequence (looked up): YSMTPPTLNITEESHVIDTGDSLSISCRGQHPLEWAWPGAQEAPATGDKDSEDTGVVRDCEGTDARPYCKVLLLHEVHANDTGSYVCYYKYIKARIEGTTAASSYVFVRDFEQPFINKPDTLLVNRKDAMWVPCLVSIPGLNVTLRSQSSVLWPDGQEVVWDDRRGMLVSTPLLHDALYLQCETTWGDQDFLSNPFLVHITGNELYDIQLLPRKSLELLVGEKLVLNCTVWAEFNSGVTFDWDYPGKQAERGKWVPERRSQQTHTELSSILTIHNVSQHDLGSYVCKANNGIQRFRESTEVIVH
The method, then:
as §1

Experiment [3] deals with T3, VEGFR-2-Fc (UniProt P35968 20-322).
T3 construct: domain: first 3 Ig domains; conditioned supernatant of 293T cells; also called VEGFR-2-Fc fusion protein; not shown: Fc fragment of the pIg vector
T3 sequence (P35968 20-322): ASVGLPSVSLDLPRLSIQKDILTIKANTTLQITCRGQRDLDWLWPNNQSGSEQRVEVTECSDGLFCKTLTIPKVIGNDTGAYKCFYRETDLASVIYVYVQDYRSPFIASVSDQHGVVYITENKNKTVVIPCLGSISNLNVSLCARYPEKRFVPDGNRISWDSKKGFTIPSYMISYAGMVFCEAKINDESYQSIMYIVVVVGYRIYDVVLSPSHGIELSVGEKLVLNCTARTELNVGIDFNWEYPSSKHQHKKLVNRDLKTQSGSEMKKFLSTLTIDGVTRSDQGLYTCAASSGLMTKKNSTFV
The method, then: as §1

T1 sequence (P17948 27-338): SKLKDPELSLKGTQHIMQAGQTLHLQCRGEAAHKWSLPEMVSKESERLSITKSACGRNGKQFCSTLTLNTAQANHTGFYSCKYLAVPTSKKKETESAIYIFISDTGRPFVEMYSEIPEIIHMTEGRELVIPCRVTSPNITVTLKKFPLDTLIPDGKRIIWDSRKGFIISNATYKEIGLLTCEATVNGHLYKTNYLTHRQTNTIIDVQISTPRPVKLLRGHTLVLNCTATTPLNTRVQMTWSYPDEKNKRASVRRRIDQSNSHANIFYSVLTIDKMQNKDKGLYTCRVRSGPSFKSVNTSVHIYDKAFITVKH

B1: 22-2 (ligand)
chain: AHYNTEILKSIDNEWRKTQCMPREVCIDVGKEFGVATNTFFKPPCVSVYRCGGCCNDEGLECMNTSTSYLSKTLFEIKPHQGQHIGEMSFLQHNKCECRPKKD
In the case of B1, the binding result in experiment [1] is recorded as “no binding”; in experiment [2], “binds”; in experiment [3] it was “binds”.

B2: 22-14 (ligand)
chain: AHYNTEILKSIDNEWRKTQCMPREVCIDVGKEFGVATNTFFKPPCVSVYRCGGCCNDEGLECMNTSTSYLSKTLFEITVPLSQGPKPVTISFANHTSCRCMSKLD
In the case of B2, the figures for the binding result in experiment [1], in experiment [2] and in experiment [3] were “no binding”, “binds” and “binds”, respectively.

B3: 23-14 (ligand)
chain: AHYNTEILKSIDNEWRKTQCMPREVCIDVGKEYPDEIEYIFKPPCVSVYRCGGCCNDEGLECMNTSTSYLSKTLFEITVPLSQGPKPVTISFANHTSCRCMSKLD
B3: the binding result is reported as “no binding” in experiment [1], “no binding” in experiment [2] and “binds” in experiment [3].

B4: 21-14 (ligand)
chain: AHYNTEILKSIDNEWRKTQCMPREVCIDVGKEYPDEIEYIFKPSCVPLMRCGGCCNDEGLECMNTSTSYLSKTLFEITVPLSQGPKPVTISFANHTSCRCMSKLD
Consider B4, for which the binding result in experiment [1], in experiment [2] and in experiment [3] was “no binding” each time.

B5: 51-14 (ligand)
chain: AHYNTEILKSIDNEWRKTQCMPIETLVDIFQEYPDEIEYIFKPSCVPLMRCGGCCNDEGLECMNTSTSYLSKTLFEITVPLSQGPKPVTISFANHTSCRCMSKLD
For B5, the binding result in experiment [1], in experiment [2] and in experiment [3] was “no binding” in each case.

B6: 72-16 (ligand)
chain: GQNHHEVVKSIDNEWRKTQCMPREVCIDVGKEFGVATNTFFKPPCVSVYRCGGCCNSEGLQCMNTSTSYLSKTLFEITVPLSQGPKPVTISFANHTSCRCMSKLD
Take B6: the figures for the binding result in experiment [1], in experiment [2] and in experiment [3] were “no binding”, “binds” and “binds”, respectively.

B7: 72-14 (ligand)
chain: GQNHHEVVKSIDNEWRKTQCMPREVCIDVGKEFGVATNTFFKPPCVSVYRCGGCCNDEGLECMNTSTSYLSKTLFEITVPLSQGPKPVTISFANHTSCRCMSKLD
Turning to B7, the binding result in experiment [1] is listed as “no binding”; in experiment [2] it was “binds”; in experiment [3], “binds”.

B8: 21-10 (ligand)
chain: AHYNTEILKSIDNEWRKTQCMPREVCIDVGKEYPDEIEYIFKPSCVPLMRCGGCCNDEGLECMNTSTSYLSKTLFEITVPLSQGPKPVTISFLQHNKCECRPKKD
Take B8: the binding result in experiment [1], in experiment [2] and in experiment [3] was “no binding” each time.

B9: 24-16 (ligand)
chain: AHYNTEILKSIDNEWRKTQCMPREVCIDVGKEFGVATNTFFKPSCVPLMRCGGCCNSEGLQCMNTSTSYLSKTLFEITVPLSQGPKPVTISFANHTSCRCMSKLD
Consider B9, for which the binding result in experiment [1], in experiment [2] and in experiment [3] was “no binding” each time.

B10: 23-16 (ligand)
chain: AHYNTEILKSIDNEWRKTQCMPREVCIDVGKEYPDEIEYIFKPPCVSVYRCGGCCNSEGLQCMNTSTSYLSKTLFEITVPLSQGPKPVTISFANHTSCRCMSKLD
With B10, the binding result in experiment [1], in experiment [2] and in experiment [3] was “no binding” each time.

B11: 52-16 (ligand)
chain: AHYNTEILKSIDNEWRKTQCMPIETLVDIFQEFGVATNTFFKPPCVSVYRCGGCCNSEGLQCMNTSTSYLSKTLFEITVPLSQGPKPVTISFANHTSCRCMSKLD
Consider B11, for which the binding result in experiment [1] is given as “no binding”; in experiment [2], “binds”; in experiment [3], “binds”.

B12: 74-14 (ligand)
chain: GQNHHEVVKSIDNEWRKTQCMPREVCIDVGKEFGVATNTFFKPSCVPLMRCGGCCNDEGLECMNTSTSYLSKTLFEITVPLSQGPKPVTISFANHTSCRCMSKLD
B12: the binding result in experiment [1], in experiment [2] and in experiment [3] was “no binding” each time.

B13: 21-16 (ligand)
chain: AHYNTEILKSIDNEWRKTQCMPREVCIDVGKEYPDEIEYIFKPSCVPLMRCGGCCNSEGLQCMNTSTSYLSKTLFEITVPLSQGPKPVTISFANHTSCRCMSKLD
As for B13, the binding result in experiment [1], in experiment [2] and in experiment [3] was “no binding” in each case.

B14: 24-10 (ligand)
chain: AHYNTEILKSIDNEWRKTQCMPREVCIDVGKEFGVATNTFFKPSCVPLMRCGGCCNDEGLECMNTSTSYLSKTLFEITVPLSQGPKPVTISFLQHNKCECRPKKD
Regarding B14, the binding result in experiment [1], in experiment [2] and in experiment [3] was “no binding” each time.

B15: 22-12 (ligand)
chain: AHYNTEILKSIDNEWRKTQCMPREVCIDVGKEFGVATNTFFKPPCVSVYRCGGCCNSEGLQCMNTSTSYLSKTLFEITVPLSQGPKPVTISFLQHNKCECRPKKD
As to B15, the binding result is listed as “no binding” in experiment [1], “binds” in experiment [2] and “binds” in experiment [3].

B16: 23-10 (ligand)
chain: AHYNTEILKSIDNEWRKTQCMPREVCIDVGKEYPDEIEYIFKPPCVSVYRCGGCCNDEGLECMNTSTSYLSKTLFEITVPLSQGPKPVTISFLQHNKCECRPKKD
notes: clone entry
Consider B16, for which the binding result in experiment [1] is listed as “no binding”; in experiment [2] it was “no binding”; in experiment [3], “binds”.

B17: 22-10 (ligand)
chain: AHYNTEILKSIDNEWRKTQCMPREVCIDVGKEFGVATNTFFKPPCVSVYRCGGCCNDEGLECMNTSTSYLSKTLFEITVPLSQGPKPVTISFLQHNKCECRPKKD
For the molecule B17, the binding result is “no binding” in experiment [1], “binds” in experiment [2] and “binds” in experiment [3].

B18: 53-14 (ligand)
chain: AHYNTEILKSIDNEWRKTQCMPIETLVDIFQEYPDEIEYIFKPPCVSVYRCGGCCNDEGLECMNTSTSYLSKTLFEITVPLSQGPKPVTISFANHTSCRCMSKLD
As to B18, the binding result in experiment [1], in experiment [2] and in experiment [3] was “no binding” each time.

B19: 23-12 (ligand)
chain: AHYNTEILKSIDNEWRKTQCMPREVCIDVGKEYPDEIEYIFKPPCVSVYRCGGCCNSEGLQCMNTSTSYLSKTLFEITVPLSQGPKPVTISFLQHNKCECRPKKD
B19: the binding result in experiment [1] is “no binding”; in experiment [2], “no binding”; in experiment [3], “binds”.

B20: 52-14 (ligand)
chain: AHYNTEILKSIDNEWRKTQCMPIETLVDIFQEFGVATNTFFKPPCVSVYRCGGCCNDEGLECMNTSTSYLSKTLFEITVPLSQGPKPVTISFANHTSCRCMSKLD
As for B20, the binding result in experiment [1] was “no binding”; in experiment [2], “binds”; in experiment [3], “no binding”.

B21: 24-14 (ligand)
chain: AHYNTEILKSIDNEWRKTQCMPREVCIDVGKEFGVATNTFFKPSCVPLMRCGGCCNDEGLECMNTSTSYLSKTLFEITVPLSQGPKPVTISFANHTSCRCMSKLD
In the case of B21, the binding result in experiment [1], in experiment [2] and in experiment [3] was “no binding” each time.
